Measurements from doi:10.1101/2021.09.10.459853v1 (bioRxiv, 2021).

Tests used:
[1] = cited from earlier work
[2] = biological target: SST2 receptor (hSSTR2) in SST2 CNiFER clone #5F3 (Homo sapiens, UniProt P30874); test: SST2 CNiFER FRET response, plate reader; assay type: cell-based; settings: 1000 nM; n = 3-6
[3] = system: SST2 CNiFERs implanted in mouse cortex; test: SST volume transmission in vivo, core-satellite SST2 CNiFER implants; settings: normal mouse cortex; distance less than 130 μm
[4] = cited from earlier work; remark: listed apart in the source
[5] = system: hyaluronan in mouse brain cortex; test: HABP immunostaining after intraventricular hyaluronidase; assay type: in vivo; settings: two days after hyase injection, n = 5 slices
[6] = Integrative optical imaging; assay type: physicochemical; settings: IOI, 0.3% dilute agarose gel in PBS; 31°C; n=30 records; Mean ± S.D.; SD

SST2 receptor (hSSTR2) in SST2 CNiFER clone #5F3, sequence (P30874 whole entry): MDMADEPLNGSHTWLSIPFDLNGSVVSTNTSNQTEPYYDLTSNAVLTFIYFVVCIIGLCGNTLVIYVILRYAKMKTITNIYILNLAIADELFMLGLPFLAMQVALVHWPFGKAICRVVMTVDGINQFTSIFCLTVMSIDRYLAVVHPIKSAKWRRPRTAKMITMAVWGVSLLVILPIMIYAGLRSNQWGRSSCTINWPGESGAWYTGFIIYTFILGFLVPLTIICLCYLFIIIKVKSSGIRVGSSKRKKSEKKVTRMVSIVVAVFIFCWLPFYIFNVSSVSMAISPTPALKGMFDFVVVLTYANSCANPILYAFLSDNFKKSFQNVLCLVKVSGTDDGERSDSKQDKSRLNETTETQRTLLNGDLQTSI

In the case of oxytocin, the “half-life in brain cerebrospinal fluid (CSF)” value [1] is listed as ~ 20 mins.

In the case of vasopressin, the “half-life in brain cerebrospinal fluid (CSF)” value [1] is given as ~ 20 mins.

In the case of CC(=O)OCC[N+](C)(C)C [acetylcholine], the “FRET response of SST2 CNiFERs” value [2] is reported as “small response”.

In the case of C[C@H](N)C(=O)NCC(=O)N[C@H]1CSSC[C@@H](C(=O)O)NC(=O)[C@H](CO)NC(=O)[C@H]([C@@H](C)O)NC(=O)[C@H](Cc2ccccc2)NC(=O)[C@H]([C@@H](C)O)NC(=O)[C@H](CCCCN)NC(=O)[C@H](Cc2c[nH]c3ccccc23)NC(=O)[C@H](Cc2ccccc2)NC(=O)[C@H](Cc2ccccc2)NC(=O)[C@H](CC(N)=O)NC(=O)[C@H](CCCCN)NC1=O [SST, Somatostatin-14], the “time to activate SST2 CNiFERs” value [3] is given as “below 10 s” and the half-life in plasma [4] is given as 1 to 3 min.

In the case of hyaluronidase, the “cell nuclei number or size in cortex compared with control group” value [5] is reported as “no differences”.

In the case of “Fluorescein-5(6)-carbonyl-somatostatin-14 [5(6)-FAM-SST]”, the “free diffusion coefficient (D)” value [6] is reported as “(3.00 ± 0.18) × 10^-6 cm^2•s^-1”.
